Reference: article doi:10.1101/2024.10.11.617762

Biological target: SARS-CoV-2 nucleocapsid C-terminal domain (N-CTD) (SARS-CoV-2, UniProt P0DTC9 247-364)
Assay: fluorescence intensity

Binder: UCUCUAAACG (ssRNA) [FAM-labelled 10-mer TRS RNA probe]
- binding result: binds
